What is called Kd is the free concentration of one partner at which half of the binding sites on the other are occupied at equilibrium, for simple one-to-one binding. A high value points to lower affinity. What is called IC50 is the midpoint of a concentration-inhibition curve.

The target of test [1] is CHO细胞重组表达的人PD-1胞外段全长蛋白(第20-170位氨基酸) (human) (UniProt Q15116). The test can be described thus: SPR, BIACORE3000, 5L12 coupled to the chip. (In SPR one partner is held on a chip, and binding of the other changes the refractive index at the surface.)
Test [2] deals with T1, 化学合成的人PD-1第75-82位氨基酸(序列QTDKLAAF) (human).
T1 peptide: QTDKLAAF
Briefly: SPR, BIACORE3000, 5L12 coupled to the chip.

The target in test [3] is T2, 表面表达人PD-1的基因重组293T细胞上的人PD-1 (human, UniProt Q15116 25-288).
T2 construct: whole, on cells; also called 2H-3细胞表面PD-1; 表面表达PD-1的293T细胞
The test can be described thus: flow cytometry competition; displacement of FITC-PD-L1 from PD-1-expressing 293T cells. In general terms: Flow cytometry measures light scatter and fluorescence of single cells or particles in a stream.

T2 sequence (Q15116 25-288): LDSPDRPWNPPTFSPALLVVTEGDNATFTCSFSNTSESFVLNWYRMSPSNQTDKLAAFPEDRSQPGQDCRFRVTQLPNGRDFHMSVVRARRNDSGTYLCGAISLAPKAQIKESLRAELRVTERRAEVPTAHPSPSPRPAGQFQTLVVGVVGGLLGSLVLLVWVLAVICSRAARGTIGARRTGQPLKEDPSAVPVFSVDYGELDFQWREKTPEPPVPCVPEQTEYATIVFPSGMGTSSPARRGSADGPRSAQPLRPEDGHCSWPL

B1: 全人源抗PD-1单克隆抗体5L12 (antibody, human IgG4 S228P, kappa, V domains shown)
VH: EVQLVESGGGLVQPGGSLRLSCAASGYTFTSYWMLWVRQAPGKGLEWVSYIYPSTGYTEYSENFKDRFTISRDNSKNTLYLQMNSLRAEDTAVYYCARGVRYYFDYWGQGTLVTVSS
VL: DIQMTQSPSSLSASVGDRVTITCKSSQSLLDSSTRKNYLAWYQQKPGKAPKLLIYWASTRESGVPSRFSGSGSGTDFTLTISSLQPEDFATYYCKQSYNLWTFGQGTKVEIKR
notes: also called FITC-5L12
In the case of B1, the Kd in test [1] was determined as 0.01 nM. In addition, in test [2], the Kd was approximately 0.01 nM. In test [3], the IC50 is approximately 0.03 µg/mL, the “IC50 ratio against Nivolumab” value is 0.05 fold of the IC50 of Nivolumab and the “IC50 ratio against Pembrolizumab” value was 0.5 fold of the IC50 of Pembrolizumab.
